Reference: US7176008B2, “Process for producing activated thrombin-activatable fibrinolysis inhibitor” (Merck & Co., Inc., priority 2002, dated 2007)

Experiment: Stability of TAFIa activity
Set-up: species or system human
Procedure: Pooled human plasma (30–40 mL) was diluted 10-fold with HBE buffer (10 mM HEPES, pH 7.4, 5 mM ε-aminocaproic acid). 5 mM of the reversible inhibitor ε-aminocaproic acid was added to maintain TAFIa stability during the isolation.
Thrombin, thrombomodulin and calcium chloride (final concentrations 5 nM, 2 nM and 5 mM, respectively) were added and the solution was shaken at room temperature for 30 min. The formation of serum was quenched with 10 μM FPRCK and centrifuged at 20,000×g for 30 min at 4° C. Unless otherwise mentioned, all isolation steps were performed at 4° C. The fibrin-free solution was loaded onto a heparin-sepharose column (2.5×3 cm) pre-equilibrated with HBE buffer.
In the presence of 5 mM ε-aminocaproic acid, TAFIa activity in serum reached a maximum at ˜5 min and was preserved >30 min at 37° C. Initial studies for formation of serum by simply adding thrombin and calcium only activated a limited amount of TAFI zymogen (<<0.5%) as determined with western blotting. Dilution of the plasma for serum preparation increased TAFI activation. A 4–5-fold increase in TAFI activation was observed if the plasma were diluted 10–20-fold. […] A maximal increase (30–35-fold) was obtained with 2 nM thrombomodulin, consistent with the fact that thrombomodulin is the cofactor for thrombin-mediated TAFI activation. […]

B1: TAFIa: activated thrombin-activatable fibrinolysis inhibitor, a basic carboxypeptidase purified from serum (protein)
chain: ASASYYEQYHSLNEIYSWIEFITERHPDMLTKIHIGSSFEKYPLYVLKVSGKEQAAKNAIWIDCGIHAREWISPAFCLWFIGHITQFYGIIGQYTNLLRLVDFYVMPVVNVDGYDYSWKKNRMWRKNRSFYANNHCIGTDLNRNFASKHWCEEGASSSSCSETYCGLYPESEPEVKAVASFLRRNINQIKAYISMHSYSQHIVFPYSYTRSKSKDHEELSLVASEAVRAIEKISKNTRYTHGHGSETLYLAPGGGDDWIYDLGIKYSFTIELRDTGTYGFLLPERYIKPTCREAFAAVSKIAWHVIRNV
time TAFIa activity was maintained (4° C., ε-aminocaproic acid present during isolation): more than 3 days | time TAFIa activity in serum was preserved (37° C., in the presence of 5 mM ε-aminocaproic acid): > 30 min
